# Test results as given in US20230392126A1, “TISSUE ORGANOIDS” (priority 2016, published 2023).
# Assays:
# [1] = Ethanol-induced CPP in GLP1 and GWT mice; assay type: in vivo, mouse; settings: 2 g/kg ethanol i.p., dox food, vs mock grafted (GWT)
# Excerpt: FIG. 26. mGLP1 expression on ethanol-induced CPP. […] Following 2 free explorations (Pre-test) on day 1, separate groups of GLP1 and GWT mice (n=9 each) received alternative ethanol (2 g/kg) and saline i.p. injections twice daily for the next 4 days, as previously described (Chen et al., Dopamine D1 and D3 receptors are differentially involved in cue-elicited cocaine seeking. J. Neurochem. 114, 530-541 (2010); Kong et al., Activation of dopamine D3 receptors inhibits reward-related learning induced by cocaine. Neurosci. 176, 152-161 (2011)). CPP expression was tested on day 6. Results represent mean±SEM time spent on the drug-paired side minus the saline-paired side. […] F value was calculated and Newman-Keuls post-hoc test was performed (Chen et al., 2010; Kong et al., 2011). […]
# (§1) Following 2 free explorations (Pre-test) on day 1, separate groups of GLP1 and GWT mice (n=9 each) received alternative ethanol (2 g/kg) and saline i.p. injections twice daily for the next 4 days, as previously described (Chen et al., Dopamine D1 and D3 receptors are differentially involved in cue-elicited cocaine seeking. J. Neurochem. 114, 530-541 (2010); Kong et al., Activation of dopamine D3 receptors inhibits reward-related learning induced by cocaine. Neurosci. 176, 152-161 (2011)). […] F value was calculated and Newman-Keuls post-hoc test was performed (Chen et al., 2010; Kong et al., 2011). […]
# [2] = Nicotine-induced CPP in GLP1 and GWT mice; assay type: in vivo, mouse; settings: 0.4 mg/kg nicotine i.p., dox food, vs GWT
# Method: FIG. 29 mGLP1 expression on nicotine-induced CPP. […] Following 2 free explorations (Pre-test) on day 1, separate groups of GLP1 and GWT mice (n=7 each) received alternative nicotine (0.4 mg/kg) and saline i.p. injections twice daily for the next 4 days, as previously described (Chen et al., 2010; Kong et al., 2011). CPP expression was tested on day 6. Results represent mean±SEM time spent on the drug-paired side minus the saline-paired side. Repeated-measures ANOVA with test days as the within group factor and status of grafting as the between-subject factor were used (Chen et al., 2010; Kong et al., 2011). F value was calculated and Newman-Keuls post-hoc test was performed (Chen et al., 2010; Kong et al., 2011). GLP1 and WT mice were on dox food for the entire duration.
# as §1, with “mGLP1” for “GLP1”, “(n=7” for “mice (n=9”, “nicotine (0.4 mg/kg)” for “ethanol (2 g/kg)”
# [3] = mGLP1 expression in blood/plasma of grafted mice fed dox food; assay type: in vivo, mouse
# Method: The epidermal progenitor cells were isolated from newborn pups of CD1 or C57BL/6J mice. […] Targeted clones were selected in the medium containing puromycin, and correct incorporation into the Rosa26 locus was confirmed by PCR and southern blots (FIG. 25B). Mouse skin substitute was prepared by seeding the targeted cells to the acellularized newborn dermis and differentiation upon exposure to the air/liquid interphase and the resultant tissues were transplanted to CD1 or C57BL/6J mice (GLP1).
# Expression of mGLP1 in GLP1 mice was stable for up to 4 months in the presence of dox (FIG. 25D).
# There was a dose-dependent release of GLP1 in plasma (not shown). Expression of mGLP1 in mGLP1 mice was stable for up to 4 months in the presence of dox (FIG. 25D).
# [4] = system: epidermal progenitor cells; assay: Suicide gene-induced cell death in epidermal progenitor cells upon prodrug treatment; assay type: cell-based; settings: ganciclovir and 5-fluorocytosine, respectively; data not shown
# Excerpt: To test this possibility, a Rosa26 targeting vector encoding phenylalanine ammonia lyase (PAL) (SEQ ID NO: 51) together with inducible “suicide” genes HSV-TK (Herpes Simplex Virus Thymidine Kinase) (SEQ ID NO: 52) and yCD (yeast cytosine deaminase) (SEQ ID NO: 53) was used for epidermal progenitor cell transfection.
# [5] = Cocaine hydrolysis activity in vitro (clearance assay with conditioned medium)
molecule,measurement,setting,value
"mGLP1: Gly8-mutant mGLP1 and mouse IgG-Fc fragment fusion protein (SEQ ID NO: 45), dox-dependent promoter, from skin grafts (protein, mGLP-1 (GLY8 mutant with IgG-Fc fusion)) MYRMQLLSCIALSLALVTNSHGEGTFTSDVSSYLEGQAAKEFIAWLVKGRGRSGCKPCICTVPEVSSVFIFPPKPKDVLTITLTPKVTCVVVDISKDDPEVQFSWFVDDVEVHTAQTQPREEQFNSTFRSVSELPIMHQDWLNGKEFKCRVNSAAFPAPIEKTISKTKGRPKAPQVYTIPPPKEQMAKDKVSLTCMITDFFPEDITVEWQWNGQPAENYKNTQPIMDTDGSYFVYSKLNVQKSNWEAGNTFTCSVLHEGLHNHHTEKSLSHSPGK",ethanol-induced CPP,[1],attenuated ethanol-induced CPP
same,nicotine-induced CPP,[2],attenuated nicotine-induced CPP
same,time to significantly enhanced levels of mGLP1 in the blood,[3]; dox food,≤ 3 days
same,duration of stable mGLP1 expression,[3]; in the presence of dox,up to 4 months
same,release of mGLP1 in plasma vs dox dose,[3]; not shown,dose-dependent release of mGLP1 in plasma
"yCD: inducible suicide gene, yeast cytosine deaminase (SEQ ID NO: 53), prodrug 5-fluorocytosine (protein, misc_feature 1..474 yCD) MVTGGMASKWDQKGMDIAYEEAALGYKEGGVPIGGCLINNKDGSVLGRGHNMRFQKGSATLHGEISTLENCGRLEGKVYKDTTLYTTLSPCDMCTGAIIMYGIPRCVVGENVNFKSKGEKYLQTRGHEVVVVDDERCKKIMKQFIDERPQDWFEDIGE",cell death upon prodrug treatment,[4],efficiently induced cell death upon treatment with prodrugs
"mBChE: mouse BChE with similar point mutations (SEQ ID NO: 43) (protein, Mouse mutant BChE) MQTQHTKVTQTHFLLWILLLCMPFGKSHTEEDFIITTKTGRVRGLSMPVLGGTVTAFLGIPYAQPPLGSLRFKKPQPLNKWPDIHNATQYANSCYQNIDQAFPGFQGSEMWNPNTNLSEDCLYLNVWIPVPKPKNATVMVWIYGGGFQTGTSSLPVYDGKFLARVERVIVVSMNYRVGALGFLAFPGNPDAPGNMGLFDQQLALQWVQRNIAAFGGNPKSITIFGESSGAASVSLHLLCPQSYPLFTRAILESGSANAPWAVKHPEEARNRTLTLAKFTGCSKENEMEMIKCLRSKDPQEILRNERFVLPSDSALGINFGPTVDGDFLTDMPHTLLQLGKVKKAQILVGVNKDEGTWFLVGGAPGFSKDNDSLITRKEFQEGLNMYFPGVSRLGKEAVLFYYVDWLGEQSPEVYRDALDDVIGDYNIICPALEFTKKFAELENNAFFYFFEHRSSKLPWPEWMGVMHGYEIEFVFGLPLGRRVNYTRAEEIFSRSIMKTWANFAKYGHPNGTQGNSTMWPVFTSTEQKYLTLNTEKSKIYSKLRAPQCQFWRLFFPKVLEMTGDIDETEQEWKAGFHRWSNYMMDWQNQFNDYTSKKESCTAL",cocaine hydrolysis activity of conditioned medium,[5],only residual activity in cocaine hydrolysis
